Measurements reported in US20210023177A1.

What was measured:
[1] = biological target: human Claudin 18 splice variant 2 (CLDN18.2) (human); assay: cell-based or functional assay
[2] = biological target: human Claudin 18 splice variant 2 (CLDN18.2) (human)

ADCC EC50 (ng/ml), BxPC3 LVT cells [1]: 47.7 ng/mL
ADCC EC50 (ng/ml), CAPAN1-LVT cells [1]: 65 ng/mL
ADCC EC50 (ng/ml), DANG cells [1]: 4980 ng/mL
ADCC EC50 (ng/ml), DANG-LVT cells [1]: 52.3 ng/mL
ADCC EC50 (ng/ml), HPAC-LVT cells [1]: 117 ng/mL
ADCC EC50 (ng/ml), MiaPaCa2-LVT cells [1]: 23.4 ng/mL
ADCC EC50 (ng/ml), Panc05.04 cells [1]: 5730 ng/mL
ADCC EC50 (ng/ml), Patu8902-LVT cells [1]: 49.2 ng/mL
ADCC EC50 (ng/ml), Suit2-LVT cells [1]: 73.2 ng/mL
ADCC EC50 (ng/ml), YAPC-LVT cells [1]: 29.5 ng/mL
ADCC Max. lysis (%), BxPC3 LVT cells, human PBMC E:T 40:1 [1]: 90.6%
ADCC Max. lysis (%), CAPAN1-LVT cells [1]: 92.6%
ADCC Max. lysis (%), DANG cells [1]: 52.5%
ADCC Max. lysis (%), DANG-LVT cells [1]: 85.9%
ADCC Max. lysis (%), HPAC-LVT cells [1]: 76.2%
ADCC Max. lysis (%), MiaPaCa2-LVT cells [1]: 78.1%
ADCC Max. lysis (%), Panc05.04 cells [1]: 67.1%
ADCC Max. lysis (%), Patu8902-LVT cells [1]: 74.1%
ADCC Max. lysis (%), Suit2-LVT cells [1]: 81.2%
ADCC Max. lysis (%), YAPC-LVT cells [1]: 91.5%
CDC EC50 (ng/ml), CAPAN1-LVT cells [1]: 970 ng/mL
CDC EC50 (ng/ml), MiaPaCa2-LVT cells [1]: 340 ng/mL
CDC EC50 (ng/ml), Patu8902-LVT cells [1]: 291 ng/mL
CDC EC50, gemcitabine pretreated MiaPaCa-2-LVT cells [1]: 4.68 µg/mL
CDC EC50, medium cultivated MiaPaCa-2-LVT cells [1]: 7.67 µg/mL
CDC Max. lysis (%), CAPAN1-LVT cells [1]: 79.1%
CDC Max. lysis (%), MiaPaCa2-LVT cells [1]: 78.4%
CDC Max. lysis (%), Patu8902-LVT cells [1]: 76.7%
CLDN18 surface expression (FACS), % of cells stained [2]: 81.7%
B1: IMAB362 (antibody, INN chains, looked up, V domains shown)
VH: QVQLQQPGAELVRPGASVKLSCKASGYTFTSYWINWVKQRPGQGLEWIGNIYPSDSYTNYNQKFKDKATLTVDKSSSTAYMQLSSPTSEDSAVYYCTRSWRGNSFDYWGQGTTLTVSS
VL: DIVMTQSPSSLTVTAGEKVTMSCKSSQSLLNSGNQKNYLTWYQQKPGQPPKLLIYWASTRESGVPDRFTGSGSGTDFTLTISSVQAEDLAVYYCQNDYSYPFTFGSGTKLEIKR
